B1: Serine/threonine-protein kinase STK11 (Mus musculus), Q9WTK7 (parent)
chain: MDVADPEPLGLFSEGELMSVGMDTFIHRIDSTEVIYQPRRKRAKLIGKYLMGDLLGEGSYGKVKEVLDSETLCRRAVKILKKKKLRRIPNGEANVKKEIQLLRRLRHRNVIQLVDVLYNEEKQKMYMVMEYCVCGMQEMLDSVPEKRFPVCQAHGYFRQLIDGLEYLHSQGIVHKDIKPGNLLLTTNGTLKISDLGVAEALHPFAVDDTCRTSQGSPAFQPPEIANGLDTFSGFKVDIWSAGVTLYNITTGLYPFEGDNIYKLFENIGRGDFTIPCDCGPPLSDLLRGMLEYEPAKRFSIRQIRQHSWFRKKHPLAEALVPIPPSPDTKDRWRSMTVVPYLEDLHGRAEEEEEEDLFDIEDGIIYTQDFTVPGQVLEEEVGQNGQSHSLPKAVCVNGTEPQLSSKVKPEGRPGTANPARKVCSSNKIRRLSACKQQ

Variants of: B1
Conditions: with aapk2_human PRKAA2, P54646
Chain of aapk2_human PRKAA2, P54646 (P54646 whole entry, looked up): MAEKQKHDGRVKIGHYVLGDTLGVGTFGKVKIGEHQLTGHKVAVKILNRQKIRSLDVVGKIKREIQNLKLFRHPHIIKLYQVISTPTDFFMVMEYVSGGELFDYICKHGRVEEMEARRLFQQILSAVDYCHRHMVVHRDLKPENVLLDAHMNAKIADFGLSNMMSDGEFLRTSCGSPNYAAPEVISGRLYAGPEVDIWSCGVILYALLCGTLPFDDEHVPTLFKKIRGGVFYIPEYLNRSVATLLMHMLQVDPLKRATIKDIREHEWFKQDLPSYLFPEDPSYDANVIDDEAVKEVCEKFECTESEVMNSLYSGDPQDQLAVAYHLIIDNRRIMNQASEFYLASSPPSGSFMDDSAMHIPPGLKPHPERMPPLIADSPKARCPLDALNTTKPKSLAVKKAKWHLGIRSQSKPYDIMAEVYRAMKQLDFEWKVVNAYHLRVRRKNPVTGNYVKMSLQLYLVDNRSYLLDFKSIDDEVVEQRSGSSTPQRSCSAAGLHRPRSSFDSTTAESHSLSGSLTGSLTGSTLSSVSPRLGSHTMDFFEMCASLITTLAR

Row | effect of a mutation on the interaction | Variant
1 | disrupting interaction strength | MDVADPEPLGLFSEGELMSVGMDTFIHRIDSTEVIYQPRRKRAKLIGKYLMGDLLGEGSYGKVKEVLDSETLCRRAVKILKKKKLRRIPNGEANVKKEIQLLRRLRHRNVIQLVDVLYNEEKQKMYMVMEYCVCGMQEMLDSVPEKRFPVCQAHGYFRQLIDGLEYLHSQGIVHKDIKPGNLLLTTNGTLKISALGVAEALHPFAVDDTCRTSQGSPAFQPPEIANGLDTFSGFKVDIWSAGVTLYNITTGLYPFEGDNIYKLFENIGRGDFTIPCDCGPPLSDLLRGMLEYEPAKRFSIRQIRQHSWFRKKHPLAEALVPIPPSPDTKDRWRSMTVVPYLEDLHGRAEEEEEEDLFDIEDGIIYTQDFTVPGQVLEEEVGQNGQSHSLPKAVCVNGTEPQLSSKVKPEGRPGTANPARKVCSSNKIRRLSACKQQ [D194A]
2 | decreasing interaction strength | MDVADPEPLGLFSEGELMSVGMDTFIHRIDSTEVIYQPRRKRAKLIGKYLMGDLLGEGSYGKVKEVLDSETLCRRAVKILKKKKLRRIPNGEANVKKEIQLLRRLRHRNVIQLVDVLYNEEKQKMYMVMEYCVCGMQEMLDSVPEKRFPVCQAHGYFRQLIDGLEYLHSQGIVHKDIKPGNLLLTTNGTLKISDLGVAEALHPFAVDDTCRTSQGSPAFQPPEIANGLDTFSGFKVDIWSAGVTLYNITTGLYPFEGDNIYKLFENIGRGDFTIPCDCGPPLSDLLRGMLEYEPAKRFSIRQIRQHSWFRKKHPLAEALVPIPPSPDTKDRWRSMTVVPYLEDLHGRAEEEEEEDLFDIEDGIIYTQDFTVPGQVLEEEVGQNGQSHSLPKAVCVNGTEPQLSSKVKPEGRPGTANPARKVCSSNKIRRLAACKQQ [S431A]
3 | decreasing interaction strength | MDVADPEPLGLFSEGELMSVGMDTFIHRIDSTEVIYQPRRKRAKLIGKYLMGDLLGEGSYGKVKEVLDSETLCRRAVKILKKKKLRRIPNGEANVKKEIQLLRRLRHRNVIQLVDVLYNEEKQKMYMVMEYCVCGMQEMLDSVPEKRFPVCQAHGYFRQLIDGLEYLHSQGIVHKDIKPGNLLLTTNGTLKISDLGVAEALHPFAVDDTCRTSQGSPAFQPPEIANGLDTFSGFKVDIWSAGVTLYNITTGLYPFEGDNIYKLFENIGRGDFTIPCDCGPPLSDLLRGMLEYEPAKRFSIRQIRQHSWFRKKHPLAEALVPIPPSPDTKDRWRSMTVVPYLEDLHGRAEEEEEEDLFDIEDGIIYTQDFTVPGQVLEEEVGQNGQSHSLPKAVCVNGTEPQLSSKVKPEGRPGTANPARKVCSSNKIRRLDACKQQ [S431D]
